Assay results as given in patent US20240173424A1, “ANTI-NECTIN-4-ANTIBODY EXATECAN CONJUGATES” (EMERGENCE THERAPEUTICS AG, priority 2021, published 2024).

Tests used:
human Nectin-4 [1] = test: Flow cytometry of MDA-MB231 transfected with Flag-tagged Nectin-4; format: binding; conditions: MDA-MB231 transfected with Nectin-4, 0.3 ng/ml-5 μg/mL
Procedure: Detection by flow cytometry. • Flow cytometry analysis of MDA-MB231 transfected with the N-terminal Flag-tagged epitope of Nectin-4 using a dose range (0.3 ng/ml-5 μg/mL) of Ch-15A7.5 or Ch-5A12.2 antibodies Parental MDA-MB231 cells are included as controls. Cells were then stained with phycoerythrin conjugate goat anti human Fc antibody. The normalized mean fluorescence intensity is shown. Inlay: staining of parental MDA-MB231 cells with anti Nectin-1, -2 and -3 mAbs ([…]). Mean fluorescence intensity is represented.
Human breast carcinoma cell line MDA-MB231 (ATCC, Manassas, VA) was cultured in DMEM supplemented with 10% fetal bovine serum, 50 IU/mL penicillin, 50 μg/mL streptomycin and 2 mM glutamine. The cells were transfected with expression vector p3XFLR4.C1 containing a PVRL4 cDNA. Human triple negative breast cancer cell line SUM190PT (BioIVT, Westbury, NY) was cultures in Ham's F12 medium with 5% fetal bovine serum, 1% non-essential amino acids, 1% Hepes, 1% insulin, 1 μg/mL hydrocortisone, 6.8 ng/ml Triiodo L-tyrosine, 100 IU/mL penicillin, 100 μg/mL streptomycin and 2 mM glutamine. Chinese hamster ovary CHO cell line was cultured in DMEM supplemented with 10% fetal bovine serum, 100 IU/mL penicillin, 100 μg/mL streptomycin and 2 mM glutamine. […]

SUM190PT cells = test: SUM190PT orthotopic xenograft in NSG mice; format: in vivo, mouse; conditions: SUM190 grafted NSG mice, single intravenous injection, 4 or 8 mg/kg
From the text: Treatment of mice (single intravenous injection) started when tumors reached approximately 150 mm^3. […] Tumor sizes (n=10/group) were monitored with a caliper twice a week thereafter and sizes were reported with the following formula (LxlxhxPi/6).
NOD/SCID (nonobese diabetic/severe combined immunodeficient)/gc null mice (NSG) were obtained from Charles River Laboratory (Margate, UK). Six to seven-weeks old females (n=5/group) were orthotopically xenografted bilaterally with the SUM190PT (0.5×10^6) cells embedded in Matrigel. Treatment with ADC was performed as mentioned in the respective experiments. Tumor sizes (n=10/group) were monitored with a caliper twice a week thereafter and sizes were reported with the following formula (LxlxhxPi/6).

[2] = target: T1, Nectin-4 expressed by tumors and Nectin-4 expressed by human keratinocytes (Homo sapiens, UniProt Q96NY8); test: Differential binding to tumor cells and human keratinocytes; conditions: in vitro differentiated Nectin-4 expressing keratinocytes
T1 construct: Cells or cell lines (10,000-50,000) expressing Nectin-4 (naturally or transfected); endogenous in cells; host or cells: SUM190/SUM190PT (also SUM149 in IHC), NHEK differentiated with 0.1 mM CaCl2, human skin sections
T1 sequence (Q96NY8 32-510): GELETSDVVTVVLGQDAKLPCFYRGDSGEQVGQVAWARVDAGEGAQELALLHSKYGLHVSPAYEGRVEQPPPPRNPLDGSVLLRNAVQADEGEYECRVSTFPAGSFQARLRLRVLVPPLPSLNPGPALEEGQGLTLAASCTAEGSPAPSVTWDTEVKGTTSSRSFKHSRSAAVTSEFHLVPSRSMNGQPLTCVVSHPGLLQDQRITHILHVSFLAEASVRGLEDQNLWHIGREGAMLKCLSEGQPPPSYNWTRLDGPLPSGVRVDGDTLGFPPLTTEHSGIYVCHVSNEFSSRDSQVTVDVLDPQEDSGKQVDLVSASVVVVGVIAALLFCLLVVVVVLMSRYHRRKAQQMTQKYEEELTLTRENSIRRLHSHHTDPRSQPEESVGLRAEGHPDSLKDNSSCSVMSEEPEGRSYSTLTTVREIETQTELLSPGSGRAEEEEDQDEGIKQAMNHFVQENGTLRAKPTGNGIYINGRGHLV
From the text: FIG. 6: Differential binding to Nectin-4 expressed by tumor cell line and normal differentiated human keratinocytes. […] Cells were then stained with phycoerythrin conjugate goat anti human Fc antibody. Normalized mean fluorescence intensities are shown. Non-linear curve fitting (4 parameters) was done with GraphPad Prism 9 software. Horizontal bar is placed at 50% of maximum staining intensity obtained with HA22 antibody on SUM190 cells.
FIG. 7: Differential binding to Nectin-4 expressed by tumor cell line and normal differentiated human keratinocytes. Detection by flow cytometry. • Flow cytometry analysis of TNBC cell line (SUM190, A) and normal differentiated (0.1 mM CaCl2) human keratinocytes (NHEK, B) using 5 μg/mL of HA22 (Enfortumab), Ch-5A12.2, Ch-15A7.5, and Ch-8F06. Cells were then stained with phycoerythrin conjugate goat anti human Fc antibody. Normalized mean fluorescence intensities are shown.
FIG. 8: Differential binding to Nectin-4 expressed by tumor cell line and human keratinocytes. Detection by immuno-histochemistry. Cryo-preserved OCT-embedded blocks of high expressing levels of Nectin-4 tumor cell line (SUM190), low expressing levels of Nectin-4 tumor cell line (SUM149), human and cynomolgus skin were processed for staining with 15A7.5 mAb (A) and 9A2.7 mAb (B). Quick score reported for each mAb are shown (A, B). C, ratio of quick score SUM190 over human skin. […]
Remaining blocks were stored at −80° C. until further use. […] Several dilution of each mAb were tested to optimize noise to signal ratio and 0.5 μg/ml of mouse 15A7.5 mAb and 10 µg/mL of mouse 9A2.7 mAb were determined as optimal. […] Both the stained cells proportion and the staining intensity were evaluated for each field. […] Scoring procedure was as follows: (i) The proportion of cells stained positively was estimated and a score from 0 to 4 was be assigned for each field (0=0-5%; 1=5-25%; 2=25-50%; 3=50-75%; and 4=75-100%); and (ii) The staining intensity was scored as 0, 1, 2, or 3 corresponding to the presence of negative, weak, intermediate, and strong brown staining, respectively. […]

human Nectin-4 [3] = test: ELISA on coated Nectin-4 Fc fusion proteins (Nec4-VCC, Nec4-V); format: binding; conditions: statement in FIG. 3 legend on the competitor mAbs
Procedure: Detection by ELISA. • Ninety-six-wells plates were coated, as indicated, with 5 μg/mL Nectin-1 extracellular domain Fc fusion recombinant protein (Nec1-VCC), or Nectin-4 IgV-like domain Fc fusion recombinant protein (Nec4-V), or Nectin-4 extracellular domain Fc fusion recombinant protein (Nec4-VCC) overnight at 4° ° C.
FIG. 3: Characterization of Ch-15A7.5 epitope. Competition assay was performed by ELISA. • Ninety-six-wells plates were coated with 5 μg/mL of Nectin-4 extracellular domain Fc fusion recombinant protein (Nec4-VCC) overnight at 4° C. Binding of peroxidase-conjugated Ch-15A7.5 mAb (5 μg/mL) was measured in presence of increasing concentrations (2.75 ng/ml-6 μg/mL) of Rituximab, Ch-15A7 mAb, Enfortumab (HA22), Ch-N41 mAb and Ch-14A5 mAb.
A sandwich enzyme-linked immunosorbent assay was used to control specificity of Ch-15A7.5 antibody and to perform competition assays between different mAbs. Ninety-six-wells plates were coated with 10 nM of Nectin-4-VCC-Fc, Nectin-1-VCC-Fc (entire extracellular part) or Nectin-4-V-Fc (comprising only the IgV domain) overnight at +4° C. After washes and saturation with PBS 1% BSA, cells were incubated for 2 hours at 25° C. with 10 nM of peroxidase-conjugated Ch-15A7.5 mAb. In the case of competition, binding of 0.5 nM of peroxidase conjugated Ch-15A7.5 mAb was measured in the presence of variable concentration (0.018 nM to 40 nM) of “cold” mAb. One hundred μL of peroxidase substrate was added (One Step ABST, Pierce), and OD was red at 405 nm.

B1: Ch-5A12.2: chimeric antibody of 5A12.2 (antibody, V domains shown)
VH: QIQLQQSGAELVKPGASVTLSCKTSGFTFNSMYISWLKQKPGQSLEWIAWIYAGTGGTRFNQKFTGKVQLTVDTSSSTAYMQFSSLTTDDSAIYYCAIRSGFVPMDYWGQGTSVTVSS
VL: SIVMTQTPKFLLVSAGDRVTITCKASQSVSNDVAWYQQKPGQSPKLLIYYASNRYTGVPDRFTGSGYGTDFTFTISTVQAEDLAVYFCQQDYSSPWTFGGGTKLEIK
- recognition of human Nectin-4 (human Nectin-4 [1]): recognize human Nectin-4

B2: HA22-MC-GGFG-DX8951 (conjugate, chains of the INN, looked up)
VH: EVQLVESGGGLVKPGGSLKLSCAASGFAFSIYDMSWVRQTPEKCLEWVAYISSGGGTTYYPDTVKGRFTISRDNAKNTLYLQMSSLKSEDTAMYYCARHSGYGTHWGVLFAYWGQGTLVTVSA
VL: DIQMTQTTSSLSASLGDRVTISCRASQDISNYLNWYQQKPDGTVKLLIYYTSILHSGVPSRFSGSGSGTDYSLTISNLEQEDFATYFCQQGNTLPWTFGCGTKLEI
modifications: MC-GGFG-DX8951 (exatecan) payload
- tumor regression (SUM190PT cells): induces a long-lasting tumor regression period

B3: mAb 3A1.4: monoclonal anti-Nectin-4 antibody characterized by SEQ ID NO:s 96-103 (antibody, V domains shown)
VH: DVQLQESGPSLVKPSQTLSLTCSVTGDSITSGYWNWIRKFPGNKLEYMGYISNSGITYYNPSLKSRISITRDTSKNQYFLQLNSVTAEDTATYYCTRFGSTMILYYTMDYWGQGTSVTVSS
VL: DIVMTQSPVTLSVTPGDRVSLSCRASQSISDYLHWYQQKSQESPRLLIKYASKSISGIPSRFSGSGSGSNFTLSINSVEPEDVGVYYCQNGHSFPLTFGAGTKLELK
modifications: VH_3A1.4; VK_3A1.4
- affinity to Nectin-4 expressed by tumors in comparison to Nectin-4 expressed by human keratinocytes [2]: higher affinity

B4: HA22: human monoclonal anti-Nectin-4 antibody described in WO2012/047724, antibody of Enfortumab vedotin (antibody, V domains shown)
VH: EVQLVESGGGLVQPGGSLRLSCAASGFTFSSYNMNWVRQAPGKGLEWVSYISSSSSTIYYADSVKGRFTISRDNAKNSLSLQMNSLRDEDTAVYYCARAYYYGMDVWGQGTTVTVSS
VL: DIQMTQSPSSVSASVGDRVTITCRASQGISGWLAWYQQKPGKAPKFLIYAASTLQSGVPSRFSGSGSGTDFTLTISSLQPEDFATYYCQQANSFPPTFGGGTKVEIK
- recognition of the IgV domain of Nectin-4 (human Nectin-4 [3]): recognize the IgV domain of Nectin-4
